Results published in IntAct's records for PubMed 29997244.

B1: DnaJ homolog subfamily C member 5 (Homo sapiens), Q9H3Z4 (parent)
chain: MADQRQRSLSTSGESLYHVLGLDKNATSDDIKKSYRKLALKYHPDKNPDNPEAADKFKEINNAHAILTDATKRNIYDKYGSLGLYVAEQFGEENVNTYFVLSSWWAKALFVFCGLLTCCYCCCCLCCCFNCCCGKCKPKAPEGEETEFYVSPEDLEAQLQSDEREATDTPIVIQPASATETTQLTADSHPSYHTDGFN
partner: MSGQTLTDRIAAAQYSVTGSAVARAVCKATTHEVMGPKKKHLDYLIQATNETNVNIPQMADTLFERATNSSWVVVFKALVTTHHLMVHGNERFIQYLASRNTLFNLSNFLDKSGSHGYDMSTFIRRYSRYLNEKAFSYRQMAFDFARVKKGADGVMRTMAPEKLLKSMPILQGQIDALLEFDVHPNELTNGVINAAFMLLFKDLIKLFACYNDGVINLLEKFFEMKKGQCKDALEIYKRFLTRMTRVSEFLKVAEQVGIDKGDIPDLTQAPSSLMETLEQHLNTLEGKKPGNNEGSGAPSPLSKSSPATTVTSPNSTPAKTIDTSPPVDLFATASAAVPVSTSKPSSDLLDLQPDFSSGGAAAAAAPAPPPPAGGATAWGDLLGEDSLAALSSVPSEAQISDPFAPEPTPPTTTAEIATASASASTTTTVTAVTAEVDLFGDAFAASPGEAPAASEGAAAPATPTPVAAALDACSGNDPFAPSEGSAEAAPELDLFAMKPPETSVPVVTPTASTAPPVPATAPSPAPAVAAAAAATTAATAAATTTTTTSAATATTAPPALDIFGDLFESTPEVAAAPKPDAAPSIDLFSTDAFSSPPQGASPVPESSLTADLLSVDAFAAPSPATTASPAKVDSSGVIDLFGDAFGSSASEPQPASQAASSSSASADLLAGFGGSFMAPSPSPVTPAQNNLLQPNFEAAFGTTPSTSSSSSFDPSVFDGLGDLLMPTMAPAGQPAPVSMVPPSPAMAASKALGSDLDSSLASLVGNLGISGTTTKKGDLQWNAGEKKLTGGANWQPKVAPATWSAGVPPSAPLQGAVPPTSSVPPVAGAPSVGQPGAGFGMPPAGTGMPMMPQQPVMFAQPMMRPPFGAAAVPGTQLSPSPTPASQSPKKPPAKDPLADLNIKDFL
B2: DnaJ homolog subfamily C member 5 (Homo sapiens), Q9H3Z4 (parent)
chain: B1 chain
partner: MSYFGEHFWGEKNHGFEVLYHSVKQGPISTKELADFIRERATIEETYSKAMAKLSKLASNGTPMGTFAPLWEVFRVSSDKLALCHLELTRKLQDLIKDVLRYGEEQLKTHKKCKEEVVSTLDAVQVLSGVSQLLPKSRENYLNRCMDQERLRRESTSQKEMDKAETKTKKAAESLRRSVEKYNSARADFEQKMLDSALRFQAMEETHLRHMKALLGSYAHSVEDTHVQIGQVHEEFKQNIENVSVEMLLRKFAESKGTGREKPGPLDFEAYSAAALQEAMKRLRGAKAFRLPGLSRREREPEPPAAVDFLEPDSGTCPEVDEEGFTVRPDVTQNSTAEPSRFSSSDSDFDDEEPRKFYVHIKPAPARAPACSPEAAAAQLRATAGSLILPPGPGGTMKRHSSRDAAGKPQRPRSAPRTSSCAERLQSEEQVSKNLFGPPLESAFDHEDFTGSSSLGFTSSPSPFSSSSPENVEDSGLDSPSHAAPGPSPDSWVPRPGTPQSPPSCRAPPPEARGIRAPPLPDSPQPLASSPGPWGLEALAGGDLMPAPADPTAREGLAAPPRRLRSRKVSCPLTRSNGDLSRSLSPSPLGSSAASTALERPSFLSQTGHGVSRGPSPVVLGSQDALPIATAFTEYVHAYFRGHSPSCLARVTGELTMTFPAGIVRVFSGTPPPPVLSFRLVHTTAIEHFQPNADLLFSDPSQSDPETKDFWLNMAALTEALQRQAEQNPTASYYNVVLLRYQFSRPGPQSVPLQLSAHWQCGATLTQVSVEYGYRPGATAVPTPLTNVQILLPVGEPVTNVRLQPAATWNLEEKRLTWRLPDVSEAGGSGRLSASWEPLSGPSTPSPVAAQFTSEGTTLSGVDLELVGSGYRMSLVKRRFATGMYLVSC
B3: DnaJ homolog subfamily C member 5 (Homo sapiens), Q9H3Z4 (parent)
chain: B1 chain
partner: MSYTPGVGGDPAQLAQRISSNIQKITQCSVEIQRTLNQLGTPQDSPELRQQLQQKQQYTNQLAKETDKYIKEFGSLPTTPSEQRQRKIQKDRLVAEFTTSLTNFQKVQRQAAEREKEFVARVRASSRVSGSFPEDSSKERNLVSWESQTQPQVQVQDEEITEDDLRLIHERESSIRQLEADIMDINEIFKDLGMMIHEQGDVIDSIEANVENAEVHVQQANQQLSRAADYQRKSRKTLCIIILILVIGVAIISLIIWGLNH
B4: DnaJ homolog subfamily C member 5 (Homo sapiens), Q9H3Z4 (parent)
chain: B1 chain
partner: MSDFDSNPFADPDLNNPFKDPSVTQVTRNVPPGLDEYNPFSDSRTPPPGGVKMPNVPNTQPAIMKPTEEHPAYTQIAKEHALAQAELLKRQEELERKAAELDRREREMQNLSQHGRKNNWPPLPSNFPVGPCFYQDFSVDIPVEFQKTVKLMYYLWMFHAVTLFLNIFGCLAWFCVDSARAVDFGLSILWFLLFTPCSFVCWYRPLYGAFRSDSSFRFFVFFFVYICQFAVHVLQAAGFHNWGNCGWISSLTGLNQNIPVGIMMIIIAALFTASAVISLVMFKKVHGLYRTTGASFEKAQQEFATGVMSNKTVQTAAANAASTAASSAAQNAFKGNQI
B5: DnaJ homolog subfamily C member 5 (Homo sapiens), Q9H3Z4 (parent)
chain: B1 chain
partner: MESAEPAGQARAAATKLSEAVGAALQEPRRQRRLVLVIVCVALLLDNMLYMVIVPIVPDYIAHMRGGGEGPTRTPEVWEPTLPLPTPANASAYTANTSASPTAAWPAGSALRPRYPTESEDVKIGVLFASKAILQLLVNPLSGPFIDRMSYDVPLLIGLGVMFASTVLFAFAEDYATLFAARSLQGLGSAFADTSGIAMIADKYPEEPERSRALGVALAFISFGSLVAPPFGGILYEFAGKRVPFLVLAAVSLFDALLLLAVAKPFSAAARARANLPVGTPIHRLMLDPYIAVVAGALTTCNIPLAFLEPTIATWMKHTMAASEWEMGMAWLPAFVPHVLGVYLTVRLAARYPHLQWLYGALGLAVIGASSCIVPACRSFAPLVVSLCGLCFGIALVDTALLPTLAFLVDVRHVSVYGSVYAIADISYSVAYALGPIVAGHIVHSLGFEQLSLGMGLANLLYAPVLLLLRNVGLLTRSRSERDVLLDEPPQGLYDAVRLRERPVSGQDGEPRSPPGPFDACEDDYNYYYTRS
B6: DnaJ homolog subfamily C member 5 (Homo sapiens), Q9H3Z4 (parent)
chain: B1 chain
partner: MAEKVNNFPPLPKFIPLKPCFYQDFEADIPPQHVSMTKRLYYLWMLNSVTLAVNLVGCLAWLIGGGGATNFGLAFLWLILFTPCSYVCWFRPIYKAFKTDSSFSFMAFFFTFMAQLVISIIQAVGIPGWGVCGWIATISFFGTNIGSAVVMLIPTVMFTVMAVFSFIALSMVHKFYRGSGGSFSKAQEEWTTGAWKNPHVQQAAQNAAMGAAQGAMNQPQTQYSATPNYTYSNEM
B7: DnaJ homolog subfamily C member 5 (Homo sapiens), Q9H3Z4 (parent)
chain: B1 chain
partner: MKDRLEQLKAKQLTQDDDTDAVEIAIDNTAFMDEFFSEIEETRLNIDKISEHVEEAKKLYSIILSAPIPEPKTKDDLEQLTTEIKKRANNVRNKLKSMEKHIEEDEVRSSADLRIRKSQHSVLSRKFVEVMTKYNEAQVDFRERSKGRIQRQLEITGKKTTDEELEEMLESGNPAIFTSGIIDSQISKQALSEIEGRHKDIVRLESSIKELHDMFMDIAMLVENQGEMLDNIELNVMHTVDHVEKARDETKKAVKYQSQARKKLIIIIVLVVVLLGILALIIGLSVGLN
B8: DnaJ homolog subfamily C member 5 (Homo sapiens), Q9H3Z4 (parent)
chain: B1 chain
partner: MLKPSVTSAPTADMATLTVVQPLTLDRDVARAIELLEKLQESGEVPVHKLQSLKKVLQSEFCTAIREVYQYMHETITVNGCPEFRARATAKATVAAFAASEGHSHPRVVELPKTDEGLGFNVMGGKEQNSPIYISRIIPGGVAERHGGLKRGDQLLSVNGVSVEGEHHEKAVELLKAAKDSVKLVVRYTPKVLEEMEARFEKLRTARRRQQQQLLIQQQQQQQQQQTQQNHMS
B9: DnaJ homolog subfamily C member 5 (Homo sapiens), Q9H3Z4 (parent)
chain: B1 chain
partner: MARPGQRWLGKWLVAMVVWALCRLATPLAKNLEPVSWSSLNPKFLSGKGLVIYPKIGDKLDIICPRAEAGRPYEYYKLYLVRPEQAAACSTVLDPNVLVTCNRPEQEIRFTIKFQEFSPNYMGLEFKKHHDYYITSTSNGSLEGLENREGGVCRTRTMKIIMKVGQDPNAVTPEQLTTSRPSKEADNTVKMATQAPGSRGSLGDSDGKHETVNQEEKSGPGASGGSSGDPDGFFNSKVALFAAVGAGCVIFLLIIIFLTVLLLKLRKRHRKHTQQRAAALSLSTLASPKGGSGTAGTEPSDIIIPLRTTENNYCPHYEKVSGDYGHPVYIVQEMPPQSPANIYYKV
B10: DnaJ homolog subfamily C member 5 (Homo sapiens), Q9H3Z4 (parent)
chain: B1 chain
partner: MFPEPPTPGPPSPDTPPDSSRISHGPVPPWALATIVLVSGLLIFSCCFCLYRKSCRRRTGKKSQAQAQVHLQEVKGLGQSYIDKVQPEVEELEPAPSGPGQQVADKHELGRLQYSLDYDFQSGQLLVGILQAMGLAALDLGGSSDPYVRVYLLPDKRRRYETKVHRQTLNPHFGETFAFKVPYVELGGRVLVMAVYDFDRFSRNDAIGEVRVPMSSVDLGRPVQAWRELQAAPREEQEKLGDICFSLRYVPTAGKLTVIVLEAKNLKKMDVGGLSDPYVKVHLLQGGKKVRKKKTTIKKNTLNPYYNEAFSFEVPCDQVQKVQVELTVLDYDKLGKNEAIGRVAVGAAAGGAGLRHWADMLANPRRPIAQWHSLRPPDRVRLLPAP
B11: DnaJ homolog subfamily C member 5 (Homo sapiens), Q9H3Z4 (parent)
chain: B1 chain
partner: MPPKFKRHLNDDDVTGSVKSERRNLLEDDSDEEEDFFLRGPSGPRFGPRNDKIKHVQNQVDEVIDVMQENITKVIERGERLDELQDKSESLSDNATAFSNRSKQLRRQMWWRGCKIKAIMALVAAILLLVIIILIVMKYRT

Variants of: B1
Details: with ap180_human SNAP91, O60641

effect of a mutation on the interaction	Variant
with no effect	L115R

Variants of: B2
Details: with fcho1_human FCHO1, O14526

effect of a mutation on the interaction	Variant
decreasing interaction strength	L115R

Variants of: B3
Details: with stx7_human STX7, O15400

effect of a mutation on the interaction	Variant
decreasing interaction strength	L115R

Variants of: B4
Details: with scam1_human SCAMP1, O15126

effect of a mutation on the interaction	Variant
with no effect	L115R

Variants of: B5
Details: with vacht_human SLC18A3, Q16572

effect of a mutation on the interaction	Variant
with no effect	L115R

Variants of: B6
Details: with scam5_human SCAMP5, Q8TAC9

effect of a mutation on the interaction	Variant
with no effect	L115R

Variants of: B7
Details: with stx3_human STX3, Q13277

effect of a mutation on the interaction	Variant
with no effect	L115R

Variants of: B8
Details: with lin7a_human LIN7A

effect of a mutation on the interaction	Variant
with no effect	L115R

Variants of: B9
Details: with efnb1_human EFNB1, P98172

effect of a mutation on the interaction	Variant
decreasing interaction strength	L115R

Variants of: B10
Details: with syt5_human SYT5, O00445

effect of a mutation on the interaction	Variant
with no effect	L115R

Variants of: B11
Details: with vamp4_human VAMP4, O75379

effect of a mutation on the interaction	Variant
with no effect	L115R
